Experimental data: PMC4565672

These substances were tested against NEURL4 (endogenous, HEK293 cells) [human (endogenous in HEK293)] (assay: co-immunoprecipitation (FLAG-IP) and Western blotting, band quantification). Settings: mean ± SE from five repeated experiments; parent: 1; read off a plot.

Question: “FLAG-tagged human LRRK2 (wild type) mutant R1398L [human] / NEURL4 (endogenous, HEK293 cells) [human (endogenous in HEK293)] chain 1 R1398L” was tested. Which ratio to parent did it give?
Answer: 1.8

Question: With “FLAG-tagged human LRRK2 (wild type) mutant R1441G [human] / NEURL4 (endogenous, HEK293 cells) [human (endogenous in HEK293)] chain 1 R1441G” as the substance, how does the ratio to parent read?
Answer: 3.2

Question: For “FLAG-tagged human LRRK2 (wild type) mutant T1348N [human] / NEURL4 (endogenous, HEK293 cells) [human (endogenous in HEK293)] chain 1 T1348N”, which ratio to parent is on record?
Answer: 4.3

The substances below were run against HERC2 (endogenous, HEK293 cells) [human (endogenous in HEK293)] in the same assay as above. Settings: mean ± SE from five repeated experiments; parent: 1; read off a plot.

Question: “FLAG-tagged human LRRK2 (wild type) mutant R1398L [human] / HERC2 (endogenous, HEK293 cells) [human (endogenous in HEK293)] chain 1 R1398L” was tested. Which ratio to parent did it give?
Answer: 1.4

Question: How did the ratio to parent turn out when “FLAG-tagged human LRRK2 (wild type) mutant T1348N [human] / HERC2 (endogenous, HEK293 cells) [human (endogenous in HEK293)] chain 1 T1348N” was run?
Answer: 3.4

Question: With “FLAG-tagged human LRRK2 (wild type) mutant R1441G [human] / HERC2 (endogenous, HEK293 cells) [human (endogenous in HEK293)] chain 1 R1441G” as the substance, how does the ratio to parent read?
Answer: 2.5
